Results on 69 sequences are retold here after the domain aggregation screens of Martell et al. (2025).

A short description of this data set: soluble fraction after stress (log2 fold change); higher = more stays soluble; pooled small domains, quantitative proteomics. Particulars: stress: 50 degC. The method, boiled down: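 Pooled custom libraries of small protein domains were each held under stress at 50°C. The read-out, high-throughput quantitative proteomics, tracked how much of each protein stayed soluble. This is reported as a base-two log fold change used to indicate aggregation propensity. Higher values mean more protein remains in solution.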

For “HMPAASDALAGELAQIARLDIAKLLAGDLSEADWSRITSATVQLSERHPDASDELTALVERIDTAYSARAT”, the “soluble fraction (log2)” value turned out to be 0.0455.
On to “HMGNIITQEAAVKLAQDRVPNATLVKIEYDFDDGRPVYEGELREGRWEYEFEIDAATGEFLKWEKD”, for which the “soluble fraction (log2)” value worked out at 0.04.
As to “HMTTTPAERQRTILRSLNRVDPVSVDALARLTGVSVVTIRRDLSDLASRDLIRRVHGGALLPTR”, the “soluble fraction (log2)” value is -0.917.
For “HMVLFDLSEREKEVLKLLADGNSYKMIASRLEITYFTVNAHLKKIYEKLQVHSASEAVSVALRNSL” the value was -1.15.
In the case of “HMQISNEEELEKIIENVIESNPEKVKAYQSGKSGLIGFFMGQVMKESGGQANPNLVNQILKGKL”, the “soluble fraction (log2)” value worked out at 0.202.
For “HMTPSTVQVHVAGAVKNPGVYVLLENARNIDAITAAGGATSEADLERINLSEFIRDGQRVYVPYKGDPI”, the “soluble fraction (log2)” value is 0.269.
As to “HMGKTIIQLATDYLIKNMQPKSLHDIESYVLTRKKIKKSSIGAILLSKPNIFGRTEDGLFGLRIWNNFQYT”, the “soluble fraction (log2)” value was -0.738.
For “HMESDRVAHVVAPGETLFSISGKYGIGMGELVAANPVLESRPPRTGDTLLIRLPENPLPAETDAETLS”, the “soluble fraction (log2)” value amounted to 0.121.
As for “HMLNLNEAEKSIYVLIKKNESNNLNKVKEDSNLSNKAWDKGIKNLVKNNLVKVVKSNEGLFIQLV”, the “soluble fraction (log2)” value is -0.345.
For “HMIADPLVINKLMDSMALAINDYNPDSVEPVLDELRQYFSENQLRELSKAMDDFDFDEALNALTLLRT” the value was -0.382.
In the case of “HMEFQEQLYRLRKQAGLSQEELSHIIGVSRQAVQKWEAGSARPDLDNLIALASHFKLSLDQLVGLT”, the “soluble fraction (log2)” value is -0.555.
On to “HMDETELLLQKAIATLPDKQRVVFNLKYFDEMKYEEMSELLETSVGALKASYHLAVKKIEQFFHDA”, for which the “soluble fraction (log2)” value is -0.643.
On to “HMGSLAVVPSLTGKTLQEAQSKAADYGLALEIEGYVASTAVDYGRIVSQSPDAGFSVKSGSSVKVSVSAG”, for which the “soluble fraction (log2)” value stood at 0.117.
For “HMSNNLAYSQFLDRVKNKEIRKVEIRGQSIVGYTSNNETFKTYAPLNDPKMYDELLTNDVQVQVDPP”, the “soluble fraction (log2)” value is 0.0519.
For “HMLGKSNAERQLDLILGAIERSITGVSRSKLMQAYHLDSRGATAAFETLEQRGLITRSKSGRTELLIPTRV” the value was -1.29.
For “HMSRAARLALDALPDEWAQFAESRGLAGSAMAETWETFRDYWQAQPGQKGVKADWAATWRNWVRRETQNRG” the value was -0.167; for “HMNETRVDQAADLLLALLEKEPKSAAEILDEFEQAGFSKSGLYRAKDALGVVSIRKEGRWVWSLPHSLD”, -0.104.
For “HMADLVYLRKRLQDAIAQLPEDMRTAYTLFQIARRSIREIAELTGASESLVKVRIHRAKGKLQELLEDLR” the value was -1.87.
With “HMTHEIKIKSHSLFASEGTKYQWYLNNIKINDATSQELEITSPGIYKLEMTNFDGDVIEKQIIVGLTNS”, the “soluble fraction (log2)” value was -2.94.
Turning to “HMYPIYDYISNMYLGKHLNAGMSLEEARGIMDEMLEKLLFDVPEEYHIDRDHFYEYLKKYYTERFSA”, the “soluble fraction (log2)” value was -1.81.
Under “HMKPGNFILDLLRTYGQKGTSAQNLMSSSRMFNFSENLIRVTLSRLAARGLIENFERGHYRLAE” stands -0.333; under “HMALTLDEARTQGRVGETFYGYLVALKTDAETEKLVNDINAERKASYQQLAKQNNVSVDDIAKLAGQKLV”, 0.0405.
Turning to “HMISFHEYLTQLLDEKGLTKAQVITDSNIQKNYGYQIFDGSKTPSRDKVIAIALAMQLTLDEANRLLHLSN”, the “soluble fraction (log2)” value is -1.47.
Regarding “HMAPKSALKIIEQISNNPRATMTDLANLTGYSRRWVAQTIKRLQEENIIKRIGSDKSGYWEIIG”, the “soluble fraction (log2)” value is -0.321.
For “HMKLISVAVMRASDAAEIAGGTDSKTLMYRAGLGLFQSWDWHGKIDIVTGSGNNAGDGYVLALLL”, the “soluble fraction (log2)” value is -0.0519.
As for “HMSVLLKEEGSLQLARHGAAYFIIYSAQEHPNQRRHLKISEEESNRIMEGTPIEEIFLAYSG”, the “soluble fraction (log2)” value is -0.291.
For “HMAQSLAQKINNYILTNRSSIANVAKSIGYSRTTVSRYLAGKYDSDPTDLENKLAEFLAHETGE” the value was 0.076; for “HMTLSHAINRLRLNANMSQEQFAGLFHVSQQSVQKWESGDSVPELSKLIAIAKHFGISLDALILGN”, -0.614.
“HMISADSSKVDTLVQVYSNMKPIQAAQVFEKMDEDLVIEILSRMKKKNAADILNLIKTEKAQVFAEKYA”: the “soluble fraction (log2)” value came out at 0.0124.
Under “HMRHLSVPSQDTQQVLQRLKVELALPEGARVRSDPSDPGRRLIPFTESVPQEMIDQYPVVSINI” stands 0.0489; under “HMRMYDVNEYSDEELHRILDLSSPTDSELEARILQMIQKYKYTNGGDNEKMAVFFENIYHHFFD”, -1.5.
As for “HMAVVAPLAGSVARVLVADGDEIEAGQVLLVLEAMKMETEITAPKAGKVGAILVGKGDSVQGGQGLR”, the “soluble fraction (log2)” value was -0.051.
As to “HMNDVEAIDDALKDLHKVSPDLAALVEMKFFGGMTEPEISEILGVSERTVRREWEKARAALLVLLE”, the “soluble fraction (log2)” value was -1.41.
On to “HMSLEDMILSLSSRIRRGESLHFRELLVAIETKSGMVTIFMAVLELLKQQVMEMRYEDDDIIFT”, for which the “soluble fraction (log2)” value was -0.912.
“HMQKIYTIARGDTLSHIVAGTLKQQGIAYTTGELYRLVNVVAQYNDILNPNRIYTGHQLDLTPLYSED”: the “soluble fraction (log2)” value was -0.103.
As for “HMISRDPYDAGAIKRHFSASGLFSSKELAHYLGKSVSTAKNVLSDLQQQGIVEMVGQGPATKYRFI”, the “soluble fraction (log2)” value stood at 0.343.
On to “HMSDYVLLYSGLNTSDTTFLAYSFQEKGIRYKMPNPDEIEVRVQDVDQARRIAAGAQLGGQVS”, for which the “soluble fraction (log2)” value was -0.424.
On to “HMANIAVTIPTGSSGDRIADILLQAGLIKDKQDFNQAVIAAGAEGKLRAGYFVIPSNATPAEIISILT”, for which the “soluble fraction (log2)” value was -0.695.
Take “HMERMTSTEILTRDFLTTNSKIVKKSTIEELSEIIHVSPATIIRTVKKMGYSGFSEYKNELINQ”: the “soluble fraction (log2)” value was -0.06.
Turning to “HMQISDDGFILKIINEVVAENPKSISDYISGKEAAVGFLVGQIMKKTRGKANPKLVNEMLITELAKLKN”, the “soluble fraction (log2)” value was -0.0439.
With “HMPLTAASLQTYLRGVDYPASKQDLIAHARKSDAPEDAITVLEQYSEQTYRSAADVSAEFGS”, the “soluble fraction (log2)” value was found to be 0.178.
Take “HMDPNFKYIIRIANSDVSGEQKLAYALTSIRGIGERTSNAIIQKLGLDSTQLAGKLTDKNVEDIESA”: the “soluble fraction (log2)” value was -0.027.
Under “HMLDIPEVGQAVQVRGRLGTVFSVAPYDGREGRLHLVTVDYLDDARPPENDEILWEIESGARILG” stands -0.523.
On to “HMSLTAQVFTDRGKVLLSENKFTEAIDQFTKALAMDKVYIEALNRRIEAYQHLGLTELAAKDEALLGTL”, for which the “soluble fraction (log2)” value was -0.755.
In the case of “HMTDWNTVEKETLSAIQKVLSGQASWIDLSPADHSIRHMQHEMVQQAGLISQSYGKEPMRRIRIYQNP”, the “soluble fraction (log2)” value was determined as 0.117.
On to “HMPKIPRLTLTETAGIMGVSQRALALAIQQGMYSWAQALPGRNKKRPIYFINAITFAKAQGIDLEEYK”, for which the “soluble fraction (log2)” value was -1.11.
In the case of “HMGKEDLTAAIKKMTLNDKLDIHKIVANFQTNDSEEVITAVKWLMENNYLLKIKNNYTWNTKEK”, the “soluble fraction (log2)” value is -0.263.
Turning to “HMQETIDVAALRVGMFVHLDLGWLAHPFPLSSFRISSEDQISTIRALGLKRVRWSSQHSELG”, the “soluble fraction (log2)” value is -1.11.
Consider “HMGQARQSAIRELGNDPTSGKKITVRSGRYGPYVTDGEVNASLRKGDDPQTIDLDRAIELLAARREKLG”, for which the “soluble fraction (log2)” value worked out at 0.13.
With “HMIDYTDTSAVKDSAAVAGRVREMINEGVPIADVNAFIRSASENGLISDDSARRLRYMNDSR”, the “soluble fraction (log2)” value is 0.0307.
With “HMRLPLYLALAQTLRQEIDAKQYKIGAHLPPEDQLVVKYGVSRHTVRQALQELKNEGLITSKAGIGTIVSS”, the “soluble fraction (log2)” value was -0.666.
Regarding “HMFDFGNHLRMLREKHGISQEELGRRVGRAGSVISNYENNIKIPTLDVLTTMARIYDVSLDYLVG”, the “soluble fraction (log2)” value is -1.36.
Regarding “HMISEAEGTILQLLKEADGTLPFTYKSDADEIKKVFGMSKKNFKRTLTELIEAKKIQLLDDAIVL”, the “soluble fraction (log2)” value was -0.459.
Take “HMTDLQNDIQAFNLKKMSYQHETKKLEEKRNPEKLEKLEQDIQALYLRIMENPNMRAFDSAKQALYLQIM”: the “soluble fraction (log2)” value is -0.773.
Regarding “HMNLGNLLKIYRKNSLLTQQQVADALNINRTTYTYYETGKTEPSIDTLHKLIKIFGITYDDLL”, the “soluble fraction (log2)” value was -2.7.
With “HMDTMINLIGLNLKKAKKELSNLGVNVKKVRYKKSSVYDEGVVIDQSIEAGRNIKNGDFITITVSSGKA”, the “soluble fraction (log2)” value stood at 0.428.
Under “HMNVNSQQINDLEKSIQKFFDKDIKNYLNQNLSNDRMISKNEIDKIILLYYGSDKEPTLDEIKSIFN” stands -0.0913; under “HMSRPLISNMLRLLNLPPTVQRKVAAGVISAGHARALLGLNDEKEIEKLANRIVAEGLSVRATEEIVAIA”, -0.937.
“HMKTKMTPELTTVIEAQIQKEWSPEQISGWLKKTHPVSVSHQRIYQHIQADRQQGGTLHQHLRQAK”: the “soluble fraction (log2)” value amounted to 0.163.
On to “HMEGYLYLSESQNELILKNLKTPLKYNLYNASGKLIKKGNIKNTLDISELPKGVYIFTSSDNSFSKKFLKT”, for which the “soluble fraction (log2)” value was -0.0444.
As for “HMYVVLYPGMARDEAVQVMNELQSRGIDYYEKNGNIYVPKTDENSLRMELANLGYPKTTNNYD”, the “soluble fraction (log2)” value stood at 0.0519.
As for “HMPTSPKANFLKELPQEFTRKQAVTIGDKLNIKERTVDNYLAKLEQAGYLVKPKAGYYQKIKS”, the “soluble fraction (log2)” value was 0.128.
“HMNRIARRELMEQLFADNKITTQEQLQQLLRAEGVEVTQATISRDMRILNIVKVSDQNGNTYYKQMK”: the “soluble fraction (log2)” value is -0.15.
In the case of “HMRMETRILTADESGIRLDAFLASRLAVSRSLAASLIDDGNVTLNGTVPKKKTAVNVGDILEVAMP”, the “soluble fraction (log2)” value is -0.234.
On to “HMAFAVWVKLVAIGPNYAQLEIEQGTQRNVRTLRPGDDAPEGVRLLSLTPTHAEVQANGIARKLALGQGMA”, for which the “soluble fraction (log2)” value is -0.381.
In the case of “HMTGEDIKKVILREYAREKSLLSIFHELSKVNSNVTLEVIKDIITNIDKLPNDLLQYFKEESSFYQKNKN”, the “soluble fraction (log2)” value was -0.397.
In the case of “HMITAEQENILFEKASDDISNNIINKGIWTKAYSQAGGDESKQKAIYIDLLVNYYKMLIKAGEEFEDI”, the “soluble fraction (log2)” value was -1.39.
For “HMDRWSLLTLTTLAGGTLRFTELKRAIGDISQRMLAQTLRTLEREGYVSRKVYATIPPKVEYRLTALGQSL” the value was -3.05; for “HMSYPEIFQSLTEREQKIADMIAEHLSNKEIAEKMFLSEGTIKQYINQIYSKLQITGDIRNKRKQLIELFH”, -1.16.
